From US7939292B2, “Modified heparinase III and methods of sequencing therewith” (Massachusetts Institute of Technology, priority 2000, dated 2011)

Key:
B16BL6 cells [1] = assay: Growth in mice of B16BL6 cells after heparinase removal of the HLGAG coat; assay type: in vivo; conditions: HLGAG coat removed
From the text: There are two possible mechanisms by which heparinase may be acting on tumor cells. For instance, heparinase III treatment of cells may result in cells losing their unique surface HLGAG coat and this directly or indirectly may impinge on their ability to grow or metastasize. On the other hand heparinase III treatment of cells may also result in the generation of distinct HLGAG fragments, and these fragments could then directly or indirectly modulate tumor cell function. It was thought that heparinase III may function though either one of these mechanisms or through some combination of these mechanisms. To investigate the mechanisms of action further, we treated B16BL6 cells with either heparinases I or III, to remove the HLGAG coat on the tumor cell surface.
In further support of this conclusion ex vivo digestion of the HLGAG coat present on tumor cells with either heparinase, followed by centrifugation and resuspension in PBS to remove the enzyme and HLGAG fragments released from the cell surface, prior to in vivo injection results in the cells being functionally identical to controls. Thus the released tumor cell HLGAG fragments appear to play the key role in modulating tumor growth and metastasis.

FGFR1 = FGFR1 phosphorylation in B16BL6 tumor samples; design: species or system mice; conditions: mouse, in vivo
Experimental: c. Effect of treatment of tumor with hep I and hep III in FGFR1 activation compared to PBS. Level of phosphorylated FGFR1 in tumor samples was assessed by standard immunoprecipitation followed by Westernblotting with phosphotyrosine specific antibody. Primary B16BL6 tumors were grown and treated as described earlier and at day 15 the tumor was harvested in cold modified RIPA buffer containing enzyme inhibitors and homogenized. The homogenates were past through 25-gauge needle 3 times and centrifuged. The supernatant was adjusted for protein concentration using the Bio-Rad protein assay kit (Bio-Rad). FGFR1 was immunoprecipitated with poly-clonal anti-FGFR1 antibody (Santa Cruz Biotechnology, Inc., CA). Samples were then pelleted, washed, and eluted from the beads by addition of sample buffer and boiled for 3 minutes (Kapila, Y. L., Wang, S. & Johnson, P. W. Mutations in the heparin binding domain of fibronectin in cooperation with the V region induce decreases in pp125(FAK) levels plus proteoglycan-mediated apoptosis via caspases. J Biol Chem 274, 30906-13 (1999).). After electrophoresis, the gel was transferred to nitrocellulose membrane by standard methods. The immunoblot was probed with phosphotyrosine specific antibody conjugated to HRP (RC20; Transduction Laboratories, Lexington, Ky.) and developed with SuperSignal West Pico Chemiluminescent substrate. […]

LLC cells = assay: Lung metastasis of LLC cells injected through tail vein; assay type: in vivo, mice; conditions: cells incubated with enzyme before tail vein injection
Experimental: To ensure that these observations were not limited to the tumor model chosen, hep III was used to treat mice bearing Lewis lung carcinoma (LLC) tumors. Growth curves of primary tumor growth for LLC tumor in C57BL/6 mice treated with either PBS or heparinase III were plotted. 4×10^5 log phase LLC cells were injected subcutaneously to the flank of mice on day 1. Daily injection of 0.1 ml of either PBS or 2 mg/ml recombinantly expressed heparinase III started at the day 4 and continued throughout the experiment. At day 8, osmotic pumps (100 μl capacity delivering at 0.5 μl per hour) containing PBS or 3 mg/ml hep III were implanted subcutaneously at a place remote from the tumor site. Mice were sacrificed at day 20. Lung metastasis of LLC cells injected through tail vein were quantitated as number of lung nodules. Log growth LLC cells were trypsinized for 30 seconds and resuspended in PBS to a final concentration of 1×10^6 per ml. For experimental group, cells were incubated with […] hep III for 30 minutes at 37° C. before injecting 0.2 ml of cell suspension via tail vein. Mice were euthanized 12 days after tail vein injections, lungs were harvested, rinsed in tap water and fixed overnight in Bouin's solution. The number of nodules on lung surface was counted with the aid of a dissection microscope.

B16BL6 cells [2] = assay: FGF-induced proliferation of B16BL6 cells in vitro; assay type: cell-based
Erk-1, 2 [3] = assay: Total and phosphorylated Erk-1, 2 in heparinase-treated B16BL6 tumor; design: species or system mice; conditions: mouse, in vivo
Experimental: e. Level of total and phosphorylated Erk-1, 2 in heparinase-treated B16BL6 tumor. Tumor homogenates were prepared and processed as described in c. The supernatant was used for total protein concentration assay and immunoblotting. The immunoblot was detected as described in a.

Erk-1, 2 [4] = assay: Erk-1, 2 activation in FGF2 stimulated B16BL6 cells (immunoblot); assay type: cell-based; conditions: enzyme 200 nM 30 min before 50 ng/ml FGF2
Experimental: a. Methods: B16BL6 cells in 10 cm culture dishes were serum starved for 48 hours before stimulation with 50 ng/ml FGF2. Cells were stimulated for 20 minutes before whole cell lysates were prepared with 1 ml modified RIPA buffer containing various enzyme inhibitors (50 mM Tris-HCl, pH 7.4, 1% NP-40, 0.25% Na-deoxycholate, 150 mM NaCl, 1 mM EDTA, 1 mM PMSF, 1 μg/ml aprotinin, leupeptin, and pepstatin, 1 mM activated Na3VO4, 1 mM NaF). Protein concentration in the lysate was determined using the Bio-Rad protein assay kit (BioRad) and adjusted accordingly for electrophoresis analysis. For the heparinase treated groups, cells were treated with either hep I or hep III (200 nM) for 30 min at 37° C. prior to addition of FGF2. The immunoblot was probed with anti-Erk-1, 2 or anti-phospho-Erk-1, 2 antibody (New England Biolabs; MA) and detected by anti-rabbit IgG conjugated to HRP using SuperSignal West Pico Chemiluminescent substrate (Pierce, Ill.).

Akt = Akt activation in B16BL6 tumor; design: species or system mice; conditions: mouse, in vivo
Experimental: f. Effect of heparinase treatment on Akt activation. The primary tumor was treated and processed as described above. Akt antibody and phospho-Akt antibody from New England Biolabs were used to probe the immunoblot.

B1: heparinase III: HLGAG degrading enzyme from Flavobacterium heparinum (EC 4.2.2.8), SEQ ID NO:2; cleaves heparan sulfate (protein, listed as Pedobacter heparinus)
chain: MTTKIFKRIIVFAVIALSSGNILAQSSSITRKDFDHINLEYSGLEKVNKAVAAGNYDDAAKALLAYYREKSKAREPDFSNAEKPADIRQPIDKVTREMADKALVHQFQPHKGYGYFDYGKDINWQMWPVKDNEVRWQLHRVKWWQAMALVYHATGDEKYAREWVYQYSDWARKNPLGLSQDNDKFVWRPLEVSDRVQSLPPTFSLFVNSPAFTPAFLMEFLNSYHQQADYLSTHYAEQGNHRLFEAQRNLFAGVSFPEFKDSPRWRQTGISVLNTEIKKQVYADGMQFELSPIYHVAAIDIFLKAYGSAKRVNLEKEFPQSYVQTVENMIMALISISLPDYNTPMFGDSWITDKNFRMAQFASWARVFPANQAIKYFATDGKQGKAPNFLSKALSNAGFYTFRSGWDKNATVMVLKASPPGEFHAQPDNGTFELFIKGRNFTPDAGVFVYSGDEAIMKLRNWYRQTRIHSTLTLDNQNMVITKARQNKWETGNNLDVLTYTNPSYPNLDHQRSVLFINKKYFLVIDRAIGEATGNLGVHWQLKEDSNPVFDKTKNRVYTTYRDGNNLMIQSLNADRTSLNEEEGKVSYVYNKELKRPAFVFEKPKKNAGTQNFVSIVYPYDGQKAPEISIRENKGNDFEKGKLNLTLTINGKQQLVLVP
ability of treated B16BL6 cells to grow in mice compared to untreated cells (B16BL6 cells [1]): no effect | phosphorylation of FGFR1 in primary tumor (FGFR1): inhibited phosphorylation of FGFR1 | colonization of lungs by LLC cells (LLC cells): inhibited the LLC cells to colonize in the lungs | FGF-induced proliferation of B16BL6 cells (B16BL6 cells [2]): inhibit FGF-induced proliferation | level of activated Erk-1, 2 in primary tumor (Erk-1, 2 [3]): lower level of activated Erk-1, 2 | Erk-1, 2 activation upon FGF2 stimulation (Erk-1, 2 [4]): decreased Erk-1, 2 activation | activation of Akt in tumor (Akt): no change in activation of Akt
